This note sets out measurements from the DeepSol protein solubility set.

The series in a line: soluble on expression in E. coli; label from the status in PepcDB or PDB records.
“MAGKKTITINGVEMEASEEQTVLQLLNNSSIEVPQVCYHPSLGPIETCDTCIVSINGELKRSCSAELKDGDVIDTLSPDVKKAQVIGMDKILYNHELYCTVCDYNNGGCEIHNTVKEMKINHQSIPFDHKPYHKDESHPFYRYDPDQCILCGRCVEACQDVQVTETLTIDWERKRPRVIWDNDVPINESSCVSCGHCSTVCPCNAMMEKGMEGEAGYLTGINNETLRPMIEITKGVETGYGSILAISDMESAMRDERIKKTKTVCTYCGVGCSFDVWTKGRDILKVEPQEEAPANGISTCVKGKFGWDFVNSEERLTKPLIREGDHFREAEWEEALLLIASKFTELKEAFGPDSLAFITSSKCTNEESYLMQKLARGVIGTNNVDNCSRYCQSPATAGLFRTVGYGGDSGSITDIAQADLVLIIGSNTSESHPVLSTRIKRAHKLRGQKVIVADIRKHEMAERSDLFVQPRAGSDIVWLNAIAKYLIENGKADERFLRERVNGRDEYVKSLAPYTLEYAEEKTGIDQETLIQMAEMIGQADSVCALWAMGVTQHIGGSDTSTAISNLLLVTGNYGKPGAGSYPLRGHNNVQGASDFGSMPDRLPGYEKVTDEQVRQKYERVWGVPLPKEPGMTNHEMIEKIHSGQLKAMYVKGEEMGLVDSNINHVHAAYEKLDFFVVQDIFLSRTAEFADVVLPASPSLEKEGTFTNTERRIQRLYQVFEPLGESKPDWQIIMEVANKLGAGWLYEHPADIMEEAAKLSPIYAGVTYERLEGYNSLQWPVNADGKDSPLLFTERFPFPDGKAILYPVQWTEPKEFGEEYDIHVNNGRLLEHFHEGNLTYKSKGISEKTPEVFLEISPELAAERGIQDGTLVRLTSPFGNVKVKCLITDRVKGKEVYLPMNDSGEAAINLLTGSHADKDTDTPAYKETSAKMEILKHDGISPLPKINHRNGNPQPQIGVQVHKKWARKDYIFPGDAVKRGM”: the “soluble on expression in E. coli” value is “not soluble”.

In the case of “MAGKPKLHYFNGRGRMEPIRWLLAAAGVEFEEKFIGSAEDLGKLRNDGSLMFQQVPMVEIDGMKLVQTRAILNYIASKYNLYGKDIKERALIDMYTEGMADLNEMILLLPLCRPEEKDAKIALIKEKTKSRYFPAFEKVLQSHGQDYLVGNKLSRADISLVELLYYVEELDSSLISNFPLLKALKTRISNLPTVKKFLQPGSPRKPPADAKALEEARKIFRF”, the “soluble on expression in E. coli” value is “soluble”.

For the sequence “MAGLFDKQADLYLDARPNYPSEWFSKLADLTDHHGLAWDAATGNGQAALAVAEHYESVVATDVSESQLKLATPHPKINYRHTPTSMTDDELVELIGGENSVDLITVAQGVHWFDLPRFYSVATRLLRKPGGIIAVWGYNDVIVSPEFDAVQYRLHATTLPFWKYPYIQHIFDSYEALPFPFENVGMGSEGEPLKLEMPKTTSFEGIIRMFKSWSAIVTAREKGVELLPESLVRELETAWGGSDLVRSVVYKAFMIAGKVRV”, the “soluble on expression in E. coli” value was “soluble”.

Consider “MAGLIPQSFIDDLLNRTDIVEVVSSRIQLKKTGKNYSACCPFHKEKTPSFTVSPDKQFYYCFGCGAGGNALGFVMDHDQLEFPQAVEELAKRAGMDVPREERGGRGHTPRQPTDSPLYPLLSAAAEFYKQALKSHPARKAAVNYLKGRGLTGEIARDFGLGFAPPGWDNLLKHLGGDNLQLKAMLDAGLLVENSDTGKRYDRFRDRVMFPIRDSRGRIIAFGGRVLGDDKPKYLNSPETPVFHKGQELYGLYEARQKNRDLDEIMVVEGYMDVIALAQQGIRNAVATLGTATSEEHIKRLFRLVPSILFCFDGDQAGRKAAWRALESVLPNLQDGKRVRFLFLPEGEDPDSLVRAEGEDAFRARITQQAQPLAEYFFQQLMLEADPATLEGKAHLATLAAPLLEKIPGNNLRLLMRQRLSEITGLSGENIGQLAHHSPPPSSMDHGASGVLDGDDYFAASAYYENEPSHAPFDAAPGYVEAQPRKSWNKDKKPWDGKKWDGKKKWDKGGRGDFKAPQRTPVSVESTTLNALRTLLHHPQLALKVDDAGTLAREQDTYAQLLVSLLEALQKNPRQSSMQLIARWHGTPQGRLLQALGEKEWLIVQENLEKQFFDTITKLSESQRFGEREERLRSVMQKSYSELTDEEKALLREHYSVAASSP”, for which the “soluble on expression in E. coli” value is listed as “not soluble”.

As to “MAGQIETRQFRTLFISDVHLGSKAAKTDFLLDFLKYHEAETIIMVGDIVDGWRLRRSWYWPQGCNDVVQKLLRKARKGTRIVYIPGNHDEFLREFPGMHFGGIEVAERMIHEAADGKKYLVIHGDEFDVVVRNARLLAYLGDWAYDAAIAINIAIAAVRRRIGLPYWSFSAWAKLQVKHAVNFIGEFQRVVADEARRNNVDGVICGHIHHAIMEDMDGIRYINTGDWVESCTAIAENADGSFELITWMQTSEATAEHASDEMEPVNIPGLIGKHAA”, the “soluble on expression in E. coli” value is given as “not soluble”.

As for “MAGTGHTPEEALALLKRGAEEIVPEEELLAKLKEGRPLTVKLGADPTRPDLHLGHAVVLRKMRQFQELGHKVVLIIGDFTGMIGDPSGRSKTRPPLTLEETRENAKTYVAQAGKILRQEPHLFELRYNSEWLEGLTFKEVVRLTSLMTVAQMLEREDFKKRYEAGIPISLHELLYPFAQAYDSVAIRADVEMGGTDQRFNLLVGREVQRAYGQSPQVCFLMPLLVGLDGREKMSKSLDNYIGLTEPPEAMFKKLMRVPDPLLPSYFRLLTDLEEEEIEALLKAGPVPAHRVLARLLTAAYALPQIPPRIDRAFYESLGYAWEAFGRDKEAGPEEVRRAEARYDEVAKGGIPEEIPEVTIPASELKEGRIWVARLFTLAGLTPSNAEARRLIQNRGLRLDGEVLTDPMLQVDLSRPRILQRGKDRFVRVRLSD”, the “soluble on expression in E. coli” value was “soluble”.

As for “MAGWVNPSFDREKLRSVIDSAERVLSERDKAREEAIRLARDVVRYSGWAVTAVHKGSLEEAEGHLARAEEAAGMLRSILEPYPDLMTAGFANNAFSEYVEARLFIDIITGRGLSSPDELRVPIVPYIQGLGDLVGELRRLSLELVRRGEFRKAWSLLDIMEAIYLELRSLDYPEALLPGVRHKADVARRLVDDTKAMLADLESRSQLEYRLKEVLKRLEA”, the “soluble on expression in E. coli” value was “soluble”.

Take “MAHAPARCPSARGSGDGEMGKPRNVALITGITGQDGSYLAEFLLEKGYEVHGIVRRSSSFNTGRIEHLYKNPQAHIEGNMKLHYGDLTDSTCLVKIINEVKPTEIYNLGAQSHVKISFDLAEYTADVDGVGTLRLLDAVKTCGLINSVKFYQASTSELYGKVQEIPQKETTPFYPRSPYGAAKLYAYWIVVNFREAYNLFAVNGILFNHESPRRGANFVTRKISRSVAKIYLGQLECFSLGNLDAKRDWGHAKDYVEAMWLMLQNDEPEDFVIATGEVHSVREFVEKSFLHIGKTIVWEGKNENEVGRCKETGKVHVTVDLKYYRPTEVDFLQGDCTKAKQKLNWKPRVAFDELVREMVHADVELMRTNPNA”: the “soluble on expression in E. coli” value was “not soluble”.

Regarding “MAHELQLIKQSSGILIPATPETSEILQSKIKLGAVLVAEFRQVRNPAFHRRFFALLNLGFEYWEPTGGAISANERKLVNGYAKFLAAYGGNESALLDAAEQYLEQIANRRVTNGISLCKSFDAYRAWVTVEAGHYDAIQLPDGTLRKHPRSIAFSSMDEVEFQQLYKSALDVLWRWILSRTFRTQREAENAAAQLMSWAG”, the “soluble on expression in E. coli” value was “not soluble”.

“MAHHHHHHMACDDSTKRNAAAVNRLLQKTRAATAPNSQWLNSITRREDGTLSNELHLSNQQRLACEMGVFPKGHFGDVEIEEENPQRSCHALAQRRARHEWKTDEEAKRRLQIGRGEVCNKRELRAAARREAAILRYEMTLPRRRVVGHLSHLMPAQADASLAVPTEGAADALVEKGCGRWVLHNSYRQQLLHGEPVMTRIMRGEFYETKPPPQRKKKVWAAGKRHVRMTSEVNRLMNTGGWCR”: the “soluble on expression in E. coli” value is reported as “not soluble”.

In the case of “MAHHHHHHMAIVGDSLNKRRNYTVCGLVSNPLFQKCAEVAQYVAEEYSDEFYVDIFREMPCEFYSRREQLLNSKKIEDGGMEVIVLVGADGHTGPTNGEGEAMSGDDFLNMMQKATCFRVLNIPPERPDSYENMAHLSWKNYLRERGNTYCWMEISIGEMVHGRVTFELYSRVVPHTCSNFWHLCKGDLSRDADEGEEQVPILSYKNSTFFRTLHGAWVMGGDISGGNGRGGYSIYGRYFPNESYAIPHDRVGVLGMCNDGGDTNASSFYITMKAMQWMNGRYVAFGRVVDGLEVVHAIHAVDVKHNQCPKKVITISDCGVIDLTE”, the “soluble on expression in E. coli” value is “not soluble”.

With “MAHHHHHHMASLMGFLTVSKISEPPKASVAQEAFDYIYERIAAPAEVDVERFLEIGHFESLATATCLSLEDLSLYLFAFAVDESAKRIYKISEKHFVAWMAGLISKLPRNAAPPTRENAYAPLFAAAHDAIVDLNNTIRSNEEKRSKFYQFLYNWCLKGNDASDRVDSAKELWSCFFSASPVSLTVEEARRKFTAYVCFPRINQWLDFITMLGEKATESKSGRVAVEQSGVSFDTWTQLLLFARFDNYDAYDDEDSWPVTMDDFVVYVRKLEESKKV”, the “soluble on expression in E. coli” value is on record as “not soluble”.

Regarding “MAHHHHHHMASSSDADGKEVGSSGEGNRATGGKWRRPSLAQQRARRAQLPPAFDVVHWNDEDISRGHLLRVLHRDTFVVLDYHRQARMLTEEGNKAERVVSVMLPAVYTARFLAVLEGRSEKVEVHSRYTNATFTPNPAAPYTFTLKCTSTRPAQQKQQVAGEEGDETFEWTVEFDVAESLMLQRFLTQALHYNTGFARTSV”, the “soluble on expression in E. coli” value was “soluble”.

Regarding “MAHHHHHHMATAKELGPGGLREDGRPIFIATDHTKFTPSTKQELTDQQKLAWKSFQLWRTTLGIERRDNVYKTLTNSDYTNFRLGTHILGTPYPVIETVPGFFDVFKAVRWYEHAISLAVALGYGYWIRSKASTRYSRMMPMSRTSITMLTFISTDLCFCYRSMYRLTGYLPNEYECFKYGVLEDKDKLQRKKELWEKYANHKREWCRRYDYHVYGIRPGETFSFFSACMIPSWEPRYNTRTDYPPRKNPYFLTSTPLRDTFLESPFTYEIPKDETVPLVRERPELKYLYRGPGRTTPPSDEK”, the “soluble on expression in E. coli” value was “not soluble”.

For “MAHHHHHHMDALIGQLENVEPDNILKSAEEFRNDKSDVKVNLSIGVCCDENGQLHIFKSVLEAEKLVQQRYKEKPYMLSNGTKQFSLLTQKLIFGENSKYLKEKKICTVQAIGGTGAICIALQLFKMLHIREICVTNKPYVNHVNMITSNGIKVKYISFFEEKLVNINYDAFLNDLRKLEDGSVLLLQVSCYNPCSTNIEEIYFDEIANIVWKKKHVIVFDIAYQGFGSSNMNDDVSLVKKFEERGISFVVCQSFSKNMSLYGERAGALHIVCKSKEERKIVANNLRVITRKFYSSPTIHTNRIVCQLLEDEKLKSEWISDLRELSERVHKNRVLFFEKMEFYQKKFDLHYDWSVYKKQRGIFSFVPMFSAIYRKLKEHHVYIIDNGRINVSGITARNVDYVAEKVCLSLAEVKRCG”, the “soluble on expression in E. coli” value is on record as “not soluble”.

Turning to “MAHHHHHHMDSMPPLSSPCLVEQEARQVPAGCFTRAVYALHSTDNEQTETAALTVRKLIKEEDQGMMRGAASSQIPLKRKGSKTNSAKSKYGKSGKLGRSSVVSWNLKSAPKITKAAGVTSANNNENREYVSPIVWCPVTPLMDNIYRSKWRQPMGRASSQAIDNEKNICIDETNVGENDLCMCKDVEAQFVLRGGERIYTLHYVTPLSMKRRETNEENSMCYGVLPVIRICVNPPVTP”, the “soluble on expression in E. coli” value is listed as “not soluble”.

As to “MAHHHHHHMDVSRRLAGENHDFRRSTQVPALCTKPQGGKGMRLNVLHEGAVPANDFHSAHLTPYEMDEIKGYSEVYYVGQNCDRKVQAPVEGGHNKGYDDERGDYLIRLRDHIAYRYEVLSTLGSGSFGQVVKAVDHCKNCTVALKIIRNRKRFTAQAKIEVQILSHLKKGDPSGIYGIVQMIDNFTFRSHVCITYELLGCNLYTYLKQRRFKPLPLDVVRKIGAGVLVSLSYMWRENIIHCDLKPENILLRSPNDTAVKVIDLGSSCFENARLFTYIQSRFYRAPEVLLGCPYSRCIDLWSYGCVLCELASGYPIFPGESEQEQMACIMEFLGTPPRDFILRSPRKHEFFEASANYSPKLVPNSKLKIRFPGTKNIAAFLGLPEGDPFVSFVKLFLEWVPDSRATPRRAMKHPWIADEVNELLSKQKRNTAATGEDDSESKFHKALPRLPKIGK”, the “soluble on expression in E. coli” value is “not soluble”.
